Laboratory results taken from patent US20150030603A1 (SAMSUNG ELECTRONICS, published 2015).

T1: recombinant hAng-2 (C-His, R&D Systems) (human, UniProt O15123 19-496)
T1 sequence: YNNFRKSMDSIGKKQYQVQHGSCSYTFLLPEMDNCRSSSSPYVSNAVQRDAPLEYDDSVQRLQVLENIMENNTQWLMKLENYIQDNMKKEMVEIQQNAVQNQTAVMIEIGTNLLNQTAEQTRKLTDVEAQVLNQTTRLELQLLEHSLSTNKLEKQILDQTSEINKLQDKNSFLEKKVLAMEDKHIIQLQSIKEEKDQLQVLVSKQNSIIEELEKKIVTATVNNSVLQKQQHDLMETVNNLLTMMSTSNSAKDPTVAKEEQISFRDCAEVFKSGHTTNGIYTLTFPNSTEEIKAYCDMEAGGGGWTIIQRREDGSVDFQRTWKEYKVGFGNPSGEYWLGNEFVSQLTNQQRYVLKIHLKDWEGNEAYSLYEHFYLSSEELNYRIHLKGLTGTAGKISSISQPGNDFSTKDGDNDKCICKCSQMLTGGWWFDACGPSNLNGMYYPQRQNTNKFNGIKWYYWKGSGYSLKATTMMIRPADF


What was measured:
[1] = target: T1, recombinant hAng-2 (C-His, R&D Systems); test: cell-based or functional assay
[2] = target: FLAG-tagged Ang2 RBD mutant at A449 (substituted with alanine (so in the source)) (human) (UniProt O15123); test: ELISA; 10D6 coated (1000 nM), 250 ng FLAG-tagged Ang2 RBD mutant, anti-FLAG-HRP, OD450; reference native Ang2; cell may be cut off at the left
[3] = target: FLAG-tagged Ang2 RBD mutant P419A (human) (UniProt O15123); test: as above
[4] = target: FLAG-tagged Ang2 RBD mutant Q418A (human) (UniProt O15123); test: as above
BSA = target: T2, BSA (bovine, UniProt P02769); test: ELISA: coated BSA, FLAG-Ang2 0.25 µg/ml and 10D6 2 µg/ml, detected with anti-mouse IgG-HRP (OD450)
T2 construct: commercial preparation (Sigma); named on the sheet under 'Coating:'; also called bovine serum albumin (Sigma); control coating
Protocol: A 96-well MaxiSorp™ flat-bottom plate (Nunc) was coated with 4 μg/ml of Tie2-Fc (R&D systems) or BSA (Sigma). Then, the plate was washed five times with 0.05% (v/v) Tween-20-containing PBS (Phosphate Buffer Saline) and blocked with 1% (v/v) BSA (Bovine serum albumin; Sigma)-containing PBS at a room temperature for 2 hours. 0.25 μg/ml of Ang2 and 2 μg/ml of 10D6 antibody were added to each well of the plate, which was allowed to react at a room temperature for 2 hours and then washed five times with PBST. After that, an anti-mouse IgG antibody (Sigma) conjugated with HRP diluted in 1% (v/v) BSA-containing PBS at a ratio of 1:5,000 (v/v) was added in an amount of 100 ul to each well to react at a room temperature for 1 hour and then, the plate was washed five times with PBST. Lastly, 100 ul (microliter) of TMB substrate (Cell Signaling) was added to each well of the plate to induce color development for 3 min. and then, the reaction was ceased by the addition of 100 ul of Stop solution (Cell Signaling) and OD450 values were measured on a plate reader (Molecular Devices).

T2 sequence (P02769 25-607 limits assumed): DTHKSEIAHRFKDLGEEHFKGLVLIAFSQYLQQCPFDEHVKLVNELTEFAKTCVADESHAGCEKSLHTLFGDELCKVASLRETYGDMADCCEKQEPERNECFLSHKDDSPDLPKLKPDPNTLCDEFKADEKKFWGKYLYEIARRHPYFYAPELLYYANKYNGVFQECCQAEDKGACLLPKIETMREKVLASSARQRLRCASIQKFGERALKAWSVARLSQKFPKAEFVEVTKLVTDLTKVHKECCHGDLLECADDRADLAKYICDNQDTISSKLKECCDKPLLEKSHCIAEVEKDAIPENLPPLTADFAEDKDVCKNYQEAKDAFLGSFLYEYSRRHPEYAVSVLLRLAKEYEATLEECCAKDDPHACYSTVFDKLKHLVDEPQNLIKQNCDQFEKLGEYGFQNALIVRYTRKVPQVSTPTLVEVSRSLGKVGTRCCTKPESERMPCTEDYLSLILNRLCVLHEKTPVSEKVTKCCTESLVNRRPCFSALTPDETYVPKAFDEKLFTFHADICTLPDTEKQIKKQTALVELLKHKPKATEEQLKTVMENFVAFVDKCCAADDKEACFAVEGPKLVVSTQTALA

| Tie2 phosphorylation effect against the control antibody RG [1] | Tie2 phosphorylation level (pTyr/Tie2 ratio) in HUVEC cells, 60 nM antibody with Ang2 [1] | binding affinity (%) with mutant Ang2 against the binding affinity with the native Ang2 [2] | binding affinity (%) with mutant Ang2 against the binding affinity with the native Ang2 [3] | binding affinity (%) with mutant Ang2 against the binding affinity with the native Ang2 [4] | binding result (BSA) | Binder |
| --- | --- | --- | --- | --- | --- | --- |
| ~8.6 fold against RG antibody | 180 % increase against Ang2 alone | 7.86% | 1.08% | 8.94% |  | SAIT-ANG2-AB-m10D6 (antibody, V domains shown) VH: DVQLQESGPGLVKPSQSLSLTCTVTGYSITSDYAWNWIRQFPGNKLEWMGYINYSGNTDYNPSLKSRSSITRDTSKNQFFLQLNSVTTGDTATYYCARGNFEGAMDYWGQGTSVTVSS VL: SIVMTQTPKFLLVSAGDRVTITCKASQSVSNDVAWYQQKPGQSPKLLIYYASNRYPGVPDRFTGSGYGTDFTFTISTVQAEDLAVYFCQQDYSSPWTFGGGTKLEIK |
|  |  |  |  |  | no binding (tested: 0.25 µg/ml) | FLAG-tagged hAng-2 (ligand, not shown: FLAG tag) YNNFRKSMDSIGKKQYQVQHGSCSYTFLLPEMDNCRSSSSPYVSNAVQRDAPLEYDDSVQRLQVLENIMENNTQWLMKLENYIQDNMKKEMVEIQQNAVQNQTAVMIEIGTNLLNQTAEQTRKLTDVEAQVLNQTTRLELQLLEHSLSTNKLEKQILDQTSEINKLQDKNSFLEKKVLAMEDKHIIQLQSIKEEKDQLQVLVSKQNSIIEELEKKIVTATVNNSVLQKQQHDLMETVNNLLTMMSTSNSAKDPTVAKEEQISFRDCAEVFKSGHTTNGIYTLTFPNSTEEIKAYCDMEAGGGGWTIIQRREDGSVDFQRTWKEYKVGFGNPSGEYWLGNEFVSQLTNQQRYVLKIHLKDWEGNEAYSLYEHFYLSSEELNYRIHLKGLTGTAGKISSISQPGNDFSTKDGDNDKCICKCSQMLTGGWWFDACGPSNLNGMYYPQRQNTNKFNGIKWYYWKGSGYSLKATTMMIRPADF |
